# Measurements reported in PMC4944209 (Journal of structural biology, 2016).
# B1: OmpF, β-barrel channel protein from the outer membrane of E. coli (natural protein, UniProt P02931 23-362, looked up)
# chain: AEIYNKDGNKVDLYGKAVGLHYFSKGNGENSYGGNGDMTYARLGFKGETQINSDLTGYGQWEYNFQGNNSEGADAQTGNKTRLAFAGLKYADVGSFDYGRNYGVVYDALGYTDMLPEFGGDTAYSDDFFVGRVGGVATYRNSNFFGLVDGLNFAVQYLGKNERDTARRSNGDGVGGSISYEYEGFGIVGAYGAADRTNLQEAQPLGNGKKAEQWATGLKYDANNIYLAANYGETRNATPITNKFTNTSGFANKTQDVLLVAQYQFDFGLRPSIAYTKSKAKDVEGIGDVDLVNYFEVGATYYFNKNMSTYVDYIINQIDSDNKLGVGSDDTVAVGIVYQF
# Target: the molecule itself
# Assay: cryo-EM structure
protein,measurement,value
B1,stoichiometry N,3
